What is called Km is the concentration of substrate that gives half-maximal velocity. The term kcat denotes the number of substrate molecules converted per active site and unit of time at saturation.

Substrate in data set [1]: OC[C@@H](O)[C@@H](O)[C@H](O)[C@@H](O)CO
Nature of the data set: purified protein. The data set is classed as biochemical, Sinorhizobium meliloti. Conditions: 1.5 mM NAD+, 20 mM CAPS pH 11.

Substrate in data set [2]: OC[C@@H](O)[C@H](O)[C@H](O)[C@@H](O)CO
The data set is described as follows: purified protein. The data set is classed as biochemical, Sinorhizobium meliloti. The settings on record: 1.5 mM NAD+, 20 mM CAPS pH 11.

B1: SmoS (SmSmoS) (Sinorhizobium meliloti 1021) (protein)
chain: MKRLEGKSALITGSARGIGRAFAEAYVREGATVAIADIDIERARQAAAEIGPAAYAVQMDVTRQDSIDAAIAATVEHAGGLDILVNNAALFDLAPIVEITRESYEKLFAINVAGTLFTLQAAARQMIAQGRGGKIINMASQAGRRGEALVAIYCATKAAVISLTQSAGLDLIKHRINVNAIAPGVVDGEHWDGVDALFARYENRPRGEKKRLVGEAVPFGRMGTAEDLTGMAIFLASAESDYIVSQTYNVDGGNWMS
Regarding B1, in data set [1], the Km is 2500 µM and the kcat came to 25625.6 s⁻¹. Besides, in data set [2], the Km was determined as 1200 µM and the kcat was 3227.1 s⁻¹.

Source of the values: paper doi:10.1101/689042v1.
